Numbering of substitutions follows the chain as printed.

Our source for the Kd values is US20220332804A1 (CSL INNOVATION, published 2022).

Holding throughout (experiment): SPR, antibody captured, C2 as analyte;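 further: biacore SPR at 37 °C, anti-C2 mAbs captured via goat anti-human IgG on CM5 chips, double-referenced sensorgrams fit to a 1:1 kinetic or steady-state model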
For assay [1], the target named is T1, human C2 S708A (human, UniProt P06681 21-752).
T1 sequence: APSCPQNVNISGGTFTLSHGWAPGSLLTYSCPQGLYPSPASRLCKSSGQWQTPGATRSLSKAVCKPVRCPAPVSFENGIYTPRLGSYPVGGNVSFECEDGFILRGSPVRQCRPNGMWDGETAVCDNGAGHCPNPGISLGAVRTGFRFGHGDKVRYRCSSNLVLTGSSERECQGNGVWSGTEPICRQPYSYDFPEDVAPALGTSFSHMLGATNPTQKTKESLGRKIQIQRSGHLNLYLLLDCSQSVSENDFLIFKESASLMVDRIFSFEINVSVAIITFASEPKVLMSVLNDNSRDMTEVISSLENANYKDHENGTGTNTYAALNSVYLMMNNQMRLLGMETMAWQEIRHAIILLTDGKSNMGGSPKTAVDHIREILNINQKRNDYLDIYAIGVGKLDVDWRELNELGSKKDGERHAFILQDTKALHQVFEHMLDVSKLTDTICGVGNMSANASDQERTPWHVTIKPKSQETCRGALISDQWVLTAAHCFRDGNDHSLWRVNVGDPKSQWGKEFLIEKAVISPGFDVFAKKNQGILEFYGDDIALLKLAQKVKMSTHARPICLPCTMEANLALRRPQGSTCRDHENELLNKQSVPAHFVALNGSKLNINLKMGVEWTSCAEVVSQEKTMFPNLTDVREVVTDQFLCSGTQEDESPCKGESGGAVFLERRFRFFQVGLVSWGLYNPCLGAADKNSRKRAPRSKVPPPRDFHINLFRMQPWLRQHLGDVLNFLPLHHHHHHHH

For assay [2], the target named is T2, human C2 V448A (human, UniProt P06681 21-752).
T2 sequence: T1 sequence with V428A, A688S

In assay [3] the target is T3, human C2 D511A (human, UniProt P06681 21-752).
T3 sequence: T1 sequence with D491A, A688S

Assay [4] has as its target T4, human C2 E450A (human, UniProt P06681 21-752).
T4 sequence: T1 sequence with E430A, A688S

B1: RF16-226 (antibody, human IgG4 S228P, lambda)
heavy: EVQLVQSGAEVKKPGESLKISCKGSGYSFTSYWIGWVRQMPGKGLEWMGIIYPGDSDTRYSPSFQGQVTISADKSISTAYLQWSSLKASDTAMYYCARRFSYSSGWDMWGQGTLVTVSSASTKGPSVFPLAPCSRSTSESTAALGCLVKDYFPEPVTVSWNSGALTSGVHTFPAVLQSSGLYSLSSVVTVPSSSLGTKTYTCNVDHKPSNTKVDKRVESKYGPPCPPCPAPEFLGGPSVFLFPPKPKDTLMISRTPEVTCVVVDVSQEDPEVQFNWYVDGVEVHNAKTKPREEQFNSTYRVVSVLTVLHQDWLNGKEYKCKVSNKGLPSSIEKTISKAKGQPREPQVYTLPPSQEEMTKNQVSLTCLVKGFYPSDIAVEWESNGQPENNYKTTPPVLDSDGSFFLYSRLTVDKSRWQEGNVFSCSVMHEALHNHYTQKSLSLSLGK
light: SYELTQPPSVSVSPGQTARITCSGDALTSKYVAWYQQKSGLAPLLVIYEDTRRPSGIPAKFSGSSSGSVATLTISGAHGDDEADYYCYSTDASGHQRVFGGGTKLTVLSQPKAAPSVTLFPPSSEELQANKATLVCLISDFYPGAVTVAWKADGSPVKAGVETTKPSKQSNNKYAASSYLSLTPEQWKSHRSYSCQVTHEGSTVEKTVAPTECS
notes: pH-dependent anti-C2 antibody from a phage display library; also called WT
As to B1, the Kd in assay [1] worked out at 21.1 nM; in assay [2], 4.4 nM; in assay [3] it was 31.2 nM; in assay [4], 4.2 nM.
